Tests used:
IL-10R1-Fc = molecular target: T1, IL-10R1-Fc (UniProt Q13651 22-235, limits assumed); assay: ELISA, IL-10R1-Fc coated
T1 sequence (looked up): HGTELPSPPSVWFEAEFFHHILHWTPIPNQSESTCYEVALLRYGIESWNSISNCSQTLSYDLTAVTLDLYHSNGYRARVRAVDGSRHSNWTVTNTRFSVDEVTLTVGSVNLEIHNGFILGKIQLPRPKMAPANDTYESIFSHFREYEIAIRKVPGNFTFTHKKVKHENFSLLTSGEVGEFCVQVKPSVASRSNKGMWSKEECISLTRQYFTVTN

IL-10R2-Fc/His = molecular target: T2, IL-10R2-Fc/His (UniProt Q08334 20-220, limits assumed); assay: ELISA, IL-10R2-Fc/His coated
T2 sequence (looked up): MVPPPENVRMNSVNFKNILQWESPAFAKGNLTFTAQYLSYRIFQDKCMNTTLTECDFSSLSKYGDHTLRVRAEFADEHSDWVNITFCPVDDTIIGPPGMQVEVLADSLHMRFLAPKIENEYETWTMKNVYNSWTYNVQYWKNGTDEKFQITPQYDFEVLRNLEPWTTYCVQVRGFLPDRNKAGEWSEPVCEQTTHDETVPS

Binder	Decreased fold of binding to ligand after Conjugating with S48 (IL-10R1-Fc) [fold]	Decreased fold of binding to ligand after Conjugating with S48 (IL-10R2-Fc/His) [fold]	Binding recovery (>60%) (IL-10R1-Fc) [%]	Binding recovery (>60%) (IL-10R2-Fc/His) [%]
IL-10 Lys119Cys-R4-7 (ligand, human, UniProt P22301 19-178, looked up, R4-7 on Cys 119, mature) SPGQGTQSENSCTHFPGNLPNMLRDLRDAFSRVKTFFQMKDQLDNLLLKESLLEDFKGYLGCQALSEMIQFYLEEVMPQAENQDPDIKAHVNSLGENLKTLRLRLRRCHRFLPCENKSCAVEQVKNAFNKLQEKGIYKAMSEFDIFINYIEAYMTMKIRN			99	106
IL-10 Arg104Cys-R4-20 (ligand, human, UniProt P22301 19-178, looked up, R4-20 on Cys 104, mature) SPGQGTQSENSCTHFPGNLPNMLRDLRDAFSRVKTFFQMKDQLDNLLLKESLLEDFKGYLGCQALSEMIQFYLEEVMPQAENQDPDIKAHVNSLGENLKTLRLCLRRCHRFLPCENKSKAVEQVKNAFNKLQEKGIYKAMSEFDIFINYIEAYMTMKIRN			98.5	96.6
IL-10 Lys130Cys-R4-7 (ligand, human, UniProt P22301 19-178, looked up, R4-7 on Cys 130, mature) SPGQGTQSENSCTHFPGNLPNMLRDLRDAFSRVKTFFQMKDQLDNLLLKESLLEDFKGYLGCQALSEMIQFYLEEVMPQAENQDPDIKAHVNSLGENLKTLRLRLRRCHRFLPCENKSKAVEQVKNAFNCLQEKGIYKAMSEFDIFINYIEAYMTMKIRN			100	99.7
IL-10 Lys34Cys-R4-7 (ligand, human, UniProt P22301 19-178, looked up, R4-7 on Cys 34, mature) SPGQGTQSENSCTHFPGNLPNMLRDLRDAFSRVCTFFQMKDQLDNLLLKESLLEDFKGYLGCQALSEMIQFYLEEVMPQAENQDPDIKAHVNSLGENLKTLRLRLRRCHRFLPCENKSKAVEQVKNAFNKLQEKGIYKAMSEFDIFINYIEAYMTMKIRN			99.6	97.3
IL-10 Met22Cys-R4-1 (ligand, human, UniProt P22301 19-178, looked up, R4-1 on Cys 22, mature) SPGQGTQSENSCTHFPGNLPNCLRDLRDAFSRVKTFFQMKDQLDNLLLKESLLEDFKGYLGCQALSEMIQFYLEEVMPQAENQDPDIKAHVNSLGENLKTLRLRLRRCHRFLPCENKSKAVEQVKNAFNKLQEKGIYKAMSEFDIFINYIEAYMTMKIRN			96.8	80
IL-10 Asp25Cys-S48 (ligand, human, UniProt P22301 19-178, looked up, S48 on Cys 25, mature) SPGQGTQSENSCTHFPGNLPNMLRCLRDAFSRVKTFFQMKDQLDNLLLKESLLEDFKGYLGCQALSEMIQFYLEEVMPQAENQDPDIKAHVNSLGENLKTLRLRLRRCHRFLPCENKSKAVEQVKNAFNKLQEKGIYKAMSEFDIFINYIEAYMTMKIRN	3	5		
IL-10 His90Cys-R4-19 (ligand, human, UniProt P22301 19-178, looked up, R4-19 on Cys 90, mature) SPGQGTQSENSCTHFPGNLPNMLRDLRDAFSRVKTFFQMKDQLDNLLLKESLLEDFKGYLGCQALSEMIQFYLEEVMPQAENQDPDIKACVNSLGENLKTLRLRLRRCHRFLPCENKSKAVEQVKNAFNKLQEKGIYKAMSEFDIFINYIEAYMTMKIRN			86.5	79
IL-10 Thr100Cys-S48 (ligand, human, UniProt P22301 19-178, looked up, S48 on Cys 100, mature) SPGQGTQSENSCTHFPGNLPNMLRDLRDAFSRVKTFFQMKDQLDNLLLKESLLEDFKGYLGCQALSEMIQFYLEEVMPQAENQDPDIKAHVNSLGENLKCLRLRLRRCHRFLPCENKSKAVEQVKNAFNKLQEKGIYKAMSEFDIFINYIEAYMTMKIRN	4	8		

The next lines start with the values.

Decreased fold of binding to ligand after Conjugating with S48 (IL-10R1-Fc) [fold]	Decreased fold of binding to ligand after Conjugating with S48 (IL-10R2-Fc/His) [fold]	Binding recovery (>60%) (IL-10R1-Fc) [%]	Binding recovery (>60%) (IL-10R2-Fc/His) [%]	Binder
36	6			IL-10 Thr35Cys-S48 (ligand, human, UniProt P22301 19-178, looked up, S48 on Cys 35, mature) SPGQGTQSENSCTHFPGNLPNMLRDLRDAFSRVKCFFQMKDQLDNLLLKESLLEDFKGYLGCQALSEMIQFYLEEVMPQAENQDPDIKAHVNSLGENLKTLRLRLRRCHRFLPCENKSKAVEQVKNAFNKLQEKGIYKAMSEFDIFINYIEAYMTMKIRN
13	9			IL-10 Arg32Cys-S48 (ligand, human, UniProt P22301 19-178, looked up, S48 on Cys 32, mature) SPGQGTQSENSCTHFPGNLPNMLRDLRDAFSCVKTFFQMKDQLDNLLLKESLLEDFKGYLGCQALSEMIQFYLEEVMPQAENQDPDIKAHVNSLGENLKTLRLRLRRCHRFLPCENKSKAVEQVKNAFNKLQEKGIYKAMSEFDIFINYIEAYMTMKIRN
50	5			IL-10 Lys34Cys-S48 (ligand, human, UniProt P22301 19-178, looked up, S48 on Cys 34, mature; also called IL10-K34C-S48) SPGQGTQSENSCTHFPGNLPNMLRDLRDAFSRVCTFFQMKDQLDNLLLKESLLEDFKGYLGCQALSEMIQFYLEEVMPQAENQDPDIKAHVNSLGENLKTLRLRLRRCHRFLPCENKSKAVEQVKNAFNKLQEKGIYKAMSEFDIFINYIEAYMTMKIRN
		99.5	84	IL-10 Arg107Cys-R4-20 (ligand, human, UniProt P22301 19-178, looked up, R4-20 on Cys 107, mature) SPGQGTQSENSCTHFPGNLPNMLRDLRDAFSRVKTFFQMKDQLDNLLLKESLLEDFKGYLGCQALSEMIQFYLEEVMPQAENQDPDIKAHVNSLGENLKTLRLRLRCCHRFLPCENKSKAVEQVKNAFNKLQEKGIYKAMSEFDIFINYIEAYMTMKIRN
		92.3	99.8	IL-10 Asn18Cys-R4-18 (ligand, human, UniProt P22301 19-178, looked up, R4-18 on Cys 18, mature) SPGQGTQSENSCTHFPGCLPNMLRDLRDAFSRVKTFFQMKDQLDNLLLKESLLEDFKGYLGCQALSEMIQFYLEEVMPQAENQDPDIKAHVNSLGENLKTLRLRLRRCHRFLPCENKSKAVEQVKNAFNKLQEKGIYKAMSEFDIFINYIEAYMTMKIRN
39	7			IL-10 Ser31Cys-S48 (ligand, human, UniProt P22301 19-178, looked up, S48 on Cys 31, mature) SPGQGTQSENSCTHFPGNLPNMLRDLRDAFCRVKTFFQMKDQLDNLLLKESLLEDFKGYLGCQALSEMIQFYLEEVMPQAENQDPDIKAHVNSLGENLKTLRLRLRRCHRFLPCENKSKAVEQVKNAFNKLQEKGIYKAMSEFDIFINYIEAYMTMKIRN
		99.3	90.7	IL-10 Thr100Cys-R4-7 (ligand, human, UniProt P22301 19-178, looked up, R4-7 on Cys 100, mature) SPGQGTQSENSCTHFPGNLPNMLRDLRDAFSRVKTFFQMKDQLDNLLLKESLLEDFKGYLGCQALSEMIQFYLEEVMPQAENQDPDIKAHVNSLGENLKCLRLRLRRCHRFLPCENKSKAVEQVKNAFNKLQEKGIYKAMSEFDIFINYIEAYMTMKIRN
		125	87.4	IL-10 Ser31Cys-R4-2 (ligand, human, UniProt P22301 19-178, looked up, R4-2 on Cys 31, mature) SPGQGTQSENSCTHFPGNLPNMLRDLRDAFCRVKTFFQMKDQLDNLLLKESLLEDFKGYLGCQALSEMIQFYLEEVMPQAENQDPDIKAHVNSLGENLKTLRLRLRRCHRFLPCENKSKAVEQVKNAFNKLQEKGIYKAMSEFDIFINYIEAYMTMKIRN
5	4			IL-10 Asn97Cys-S48 (ligand, human, UniProt P22301 19-178, looked up, S48 on Cys 97, mature) SPGQGTQSENSCTHFPGNLPNMLRDLRDAFSRVKTFFQMKDQLDNLLLKESLLEDFKGYLGCQALSEMIQFYLEEVMPQAENQDPDIKAHVNSLGECLKTLRLRLRRCHRFLPCENKSKAVEQVKNAFNKLQEKGIYKAMSEFDIFINYIEAYMTMKIRN
